Experimental findings from the supplement of paper PMC12042874 are described below.

± gives the uncertainty stated by the source.

The series can be described thus: amyloid nucleation score (Sup35N fusion, yeast selection) (log enrichment); library NNK2; higher = more nucleation; inactive = no reads after selection. Put shortly:
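Nucleation score is defined as the DiMSum log enrichment of output over input reads, with centring on the mode score of non-aggregating sequences. A minimum of 100 input reads was required for each sequence. Reads came from Illumina sequencing of plasmid inserts from psi-negative yeast expressing Sup35N fused to peptides of 20 random codons, induced with 100 μM copper sulfate for 24 hours and grown 7 days at 30°C on medium lacking adenine and uracil.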
The substance HRLQLPHHRKGKWVLLMWGV had an amyloid nucleation score of -0.44 ± 0.41.

Turning to CLISRLIVL, the amyloid nucleation score was -0.038 ± 0.79.

The substance VNVEYSSMHKLCAW showed an amyloid nucleation score of 0.201 ± 0.46.

In turn, YRLRMIFSMGMNNYVARWFH showed an amyloid nucleation score of -1.5 ± 1.1.

In turn, NVDLFWQWVYVYWRGARVEF displayed an amyloid nucleation score of 0.075 ± 0.43.

Regarding KLGLSSIHFSGSMFVRCTFC, the amyloid nucleation score came to 4.503 ± 0.041.

In the case of NLWFSHDITYHYTYFDRSRA, the amyloid nucleation score came to 4.52 ± 0.087.

Substance RIHYYVVLCLGSRRSTFGLR showed an amyloid nucleation score of -0.171 ± 0.28.

Substance CSEYLCGVKVLTCWFGRRYS displayed an amyloid nucleation score of 0.174 ± 0.4.

For the substance IVVQWMYVF, the amyloid nucleation score is -0.382 ± 0.33.

SYGLRSC: the amyloid nucleation score came to 0.174 ± 0.63.

Regarding VATWGDQVLRMRWAALRLCV, the amyloid nucleation score was found to be 5.96 ± 0.079.

In turn, MNIVVYVHLGVSAQVSMAHR registered an amyloid nucleation score of 8.407 ± 0.041.

The substance VFRFNFLRGLKIQVLSRFGW registered an amyloid nucleation score of -0.067 ± 1.1.

Consider RRWTHKEPIKASLVRRFLRV, for which the amyloid nucleation score result is “inactive”.

On to SPAQCIGVCNRLKLYCST, for which the amyloid nucleation score came to 0.262 ± 0.45.

Take GVRWYAMRPEVGYL: the amyloid nucleation score came to 0.155 ± 1.1.

As to DFNSDFAGLLLDTNKYYIHD, the amyloid nucleation score was -0.088 ± 1.1.

GVREYMH gave an amyloid nucleation score of 0.544 ± 0.28.

As to CPSVSSRSRELSLLTDQEVI, the amyloid nucleation score was determined as 0.812 ± 0.4.

LVQFHRLPRTRWGEFVRGDH gave an amyloid nucleation score of 3.84 ± 0.092.

In turn, SSKRVMKYRCDRWMADTCRK gave an amyloid nucleation score of 0.201 ± 0.8.

APTQDTLEFRHISFEVVWRT displayed an amyloid nucleation score of 2.84 ± 0.18.

VFFNLDSWSSKVCDSKLMVM yielded an amyloid nucleation score of -0.373 ± 0.54.

As for VKIWDHKCSLRGYWVKWMIG, the amyloid nucleation score was 1.45 ± 0.3.

Turning to PALCVNAVTKIDRNNCYDNG, the amyloid nucleation score was 3.92 ± 0.064.

For GRTSDFKLWIGVCLLGSSYV, the amyloid nucleation score stood at 1.89 ± 0.2.

As for DSVIRRNKNTSTL, the amyloid nucleation score was -0.275 ± 0.25.

Take GECLDR: the amyloid nucleation score is 2.83 ± 0.075.

In the case of FSMVT, the amyloid nucleation score came to 0.057 ± 0.63.

The substance ILDCLSYQLDDVVSAI came in with an amyloid nucleation score of 3.21 ± 0.046.

As to KIWMSLHLRELRLC, the amyloid nucleation score was 0.569 ± 0.12.

GKLRLLWKGITCVRAFANKL: the amyloid nucleation score is -0.976 ± 0.34.

Substance GSSYNGNTRLTHVGRSVSVR returned an amyloid nucleation score of -0.632 ± 0.63.

PMFVSLVKFTYWSCTVFLGA gave an amyloid nucleation score of -0.582 ± 0.38.

Substance GNVLFAFTFSVCLKFLAFVF had an amyloid nucleation score of -0.407 ± 0.64.

In turn, TFFYMRFPGFLFSNSSNAW came in with an amyloid nucleation score of 1.47 ± 0.24.

For CTHNTSKVSKMVIVCPRFNL, the amyloid nucleation score was 6.218 ± 0.035.

Consider ESTWSFNSLYIDLIKVWSDV, for which the amyloid nucleation score is -0.889 ± 0.76.

For the substance TRLCRNLAASPGFLWTVYKS, the amyloid nucleation score entry was “inactive”.

With CTAQRNGKYDHGEDSLRLSR, the amyloid nucleation score was found to be 1.49 ± 0.36.

In the case of SCSTYNDSSVYWFN, the amyloid nucleation score worked out at 2.04 ± 0.077.

In turn, VYNLN returned an amyloid nucleation score of -0.181 ± 0.41.

With IAPLWPYLNPYRVIFF, the amyloid nucleation score entry was “inactive”.

In the case of CISKLKFLGCRVE, the amyloid nucleation score result was “inactive”.

NIRQVIKGVSCLHIMWEKWR gave an amyloid nucleation score of -0.304 ± 0.48.

In turn, RTEMHYARQRHELDVPVWL returned an amyloid nucleation score of 0.25 ± 0.49.

Turning to CLQCYYRMSDNCFHSTA, the amyloid nucleation score came to 5.114 ± 0.04.

MSRKFMGVFCTSSRGSLPRG: the amyloid nucleation score was 0.653 ± 0.47.

For the substance CRCISVPCVVFVV, the amyloid nucleation score is -0.142 ± 0.79.

WWHLKTQKSP registered an amyloid nucleation score of -0.09 ± 0.44.

For the substance LCKYDGCMIAYGVLHSSSAG, the amyloid nucleation score was 0.651 ± 0.26.

As for TGKFL, the amyloid nucleation score entry was “inactive”.

On to LYVSALTSVRSWGCGNLVLP, for which the amyloid nucleation score is 3.37 ± 0.08.

For IREGMWCSRGMHHTRLRDFS, the amyloid nucleation score came out at 0.671 ± 0.64.

With KKVVLRPS, the amyloid nucleation score was determined as 4.97 ± 0.051.

Turning to ICRLFVR, the amyloid nucleation score was -0.454 ± 0.31.

NWWESRAFGWYDSLSIFSYT gave an amyloid nucleation score of -0.469 ± 1.1.

Take FYISKFLAWFIIPSGLFLGN: the amyloid nucleation score was -1.72 ± 1.1.

Substance PCTRS showed an amyloid nucleation score of 0.414 ± 0.31.

QDNFQFFAVSMRGCDCTGVS gave an amyloid nucleation score of 6.96 ± 0.048.

As to FSEWRIGKNMIFCDVIDVCE, the amyloid nucleation score is 1.94 ± 0.089.

With DSASVRVVIADEDLSAVVRA, the amyloid nucleation score came to 1.72 ± 0.27.

Regarding FRFPFFVQWFFCLSGSQRAR, the amyloid nucleation score entry is “inactive”.

For the substance MCCYVSCQ, the amyloid nucleation score worked out at 2.55 ± 0.12.

For the substance FTTFRR, the amyloid nucleation score is -0.854 ± 0.55.

LTYACSWYQKSQFGSCLNEW came in with an amyloid nucleation score of 0.449 ± 0.26.

YYICDLLHSRCEVKLD registered an amyloid nucleation score of -0.551 ± 0.37.

Consider VGHQVDCHTSVRYYILYAFF, for which the amyloid nucleation score amounted to 7.839 ± 0.063.

For the substance AWVYSMRQVYQLNCLDQIMY, the amyloid nucleation score entry is “inactive”.

Turning to PVIFGTR, the amyloid nucleation score was 0.192 ± 1.

On to GVRDVIQL, for which the amyloid nucleation score was 2.05 ± 0.26.

MYTYLINVNVSDAFTLYGLE showed an amyloid nucleation score of 4.43 ± 0.056.

Substance SRAKMVFNFGAWFSRVCKN displayed an amyloid nucleation score of 2.42 ± 0.088.

In the case of IDKGSKVFTGLGLLFCSKYF, the amyloid nucleation score is 7.2 ± 0.074.

With VGLFNVTLAFVLYGSSRLVL, the amyloid nucleation score came out at 4.12 ± 0.057.

For ANQDGNCFGFISVGSQLSLM, the amyloid nucleation score came out at 0.387 ± 0.8.

On to SGMGSSYLFQFGSMYAFDDC, for which the amyloid nucleation score is 0.636 ± 0.34.

AMPSNMLGTSGSYDAC: the amyloid nucleation score turned out to be 0.404 ± 0.66.

CYMVRGYSFSNRWTAHGHEM gave an amyloid nucleation score of 2.51 ± 0.21.

SWITPMRHLFSNHSLGLNAY had an amyloid nucleation score of -0.298 ± 0.43.

On to RKSVWYCDIFIIEYPDFSYS, for which the amyloid nucleation score stood at 2.07 ± 0.1.

Turning to STAFFSIIIVFFISTCRETP, the amyloid nucleation score was -0.78 ± 0.63.

For the substance RVNGLKSRVSRVRIGNVS, the amyloid nucleation score came out at 0.224 ± 0.23.

With FRVRRGLASGR, the amyloid nucleation score is 1.28 ± 0.3.

Regarding CTVLSDRTCYSSTERLVRIH, the amyloid nucleation score entry was “inactive”.

Substance SKMVDLVVNPQVYCLRRVFW returned an amyloid nucleation score of 2.9 ± 0.078.

In turn, ARTSLCESTWPTNVRIGPKS returned an amyloid nucleation score of 0.498 ± 0.64.

As to VRWMITHNFRVF, the amyloid nucleation score entry was “inactive”.

Substance FGDYPNSLKWLQE had an amyloid nucleation score of -0.558 ± 0.63.

Substance YGKADCPSLGVYMRL showed an amyloid nucleation score of 2.25 ± 0.15.

Take MTWGSISNNLVTRTTPTYIC: the amyloid nucleation score worked out at 0.178 ± 0.56.

The substance RPSFKKYFAGSSDTNGSGVC gave an amyloid nucleation score of -0.513 ± 0.64.

The substance CTVRDSMAGIYLVDLVSCIR came in with an amyloid nucleation score of -0.21 ± 0.6.

For the substance THFPLHV, the amyloid nucleation score was -0.388 ± 0.37.

On to YLQYPYCSSKSFARDDLVKY, for which the amyloid nucleation score was 0.173 ± 0.79.

In the case of SIKNHRDREILAMPGVSRSA, the amyloid nucleation score result was “inactive”.

MVYGLDFIGASL registered an amyloid nucleation score of -0.016 ± 0.5.

On to FDAQNSWSWHRSWQNVFRKG, for which the amyloid nucleation score is 1.54 ± 0.22.

In turn, TLGMYFFVSMLSLLVSVNGF gave an amyloid nucleation score of -0.427 ± 1.1.

Consider VLRMRGCW, for which the amyloid nucleation score came out at 6.738 ± 0.049.

As for DKFMLVSCVYSDNLLVIYSG, the amyloid nucleation score result is “inactive”.

In turn, LVIRAKYYNPRTWGKFLHPV returned an amyloid nucleation score of -0.381 ± 0.28.

In turn, EKAGGPWLDHNRRQCQCEVA gave an amyloid nucleation score of 0.634 ± 0.45.

The substance GFWEGRILG yielded an amyloid nucleation score of 2.61 ± 0.22.

With ISDLFYANLLVIASNMVT, the amyloid nucleation score is -1.46 ± 0.78.

HTKVRGKRLCGDWSVRISCS gave an amyloid nucleation score of 0.733 ± 0.29.

In the case of FSFLHFVERLTGHLIYFSRF, the amyloid nucleation score entry is “inactive”.

Consider VESLFGYW, for which the amyloid nucleation score was -0.889 ± 1.1.

On to INHDFQTHVL, for which the amyloid nucleation score came to 0.154 ± 0.65.

Consider KRGKPK, for which the amyloid nucleation score entry is “inactive”.

VCCAFLCASRAVVYTGKDMH came in with an amyloid nucleation score of 10.18 ± 0.027.

As to FRMLNRFLWFKVKMGYMHYG, the amyloid nucleation score was -0.618 ± 0.42.

Substance HFGDIDKYRAADAGVVERNP yielded an amyloid nucleation score of 4.25 ± 0.083.

As for KLVISAFPPIRNMVYTKCSK, the amyloid nucleation score is -0.446 ± 1.1.

On to SLIFSDPHLVIALNFT, for which the amyloid nucleation score is 8.898 ± 0.061.

Substance TNQGFLWVSPLILTRCGDRQ registered an amyloid nucleation score of 6.68 ± 0.079.

Consider YFCPVPYLAPVLCRLFKVKL, for which the amyloid nucleation score is -0.87 ± 1.

MFPVPLVNIGMPDRWVKEKD returned an amyloid nucleation score of 0.469 ± 0.34.

Turning to GPLFPNFKSLGGEYRRH, the amyloid nucleation score amounted to 0.325 ± 0.42.

Take KCVVRAVA: the amyloid nucleation score was 2.23 ± 0.24.

The substance QEAALG registered an amyloid nucleation score of 1.27 ± 0.35.

For the substance PRLPTQTITK, the amyloid nucleation score is 1.53 ± 0.16.

DSWLFGDINRCFWLVKCYHR returned an amyloid nucleation score of 2.69 ± 0.075.

As to FFGRGSHKAGYYSCTTSLTQ, the amyloid nucleation score is 1.07 ± 0.16.

Substance LLHYGGSFLAAKFRRMGFTM showed an amyloid nucleation score of -0.262 ± 0.56.

As for QGAVLTL, the amyloid nucleation score was -1.12 ± 0.76.

ISMTL yielded an amyloid nucleation score of 6.15 ± 0.081.

AWWRGPSFFNPSWKCMNDSS had an amyloid nucleation score of -0.84 ± 0.54.

Turning to VIGRCDSL, the amyloid nucleation score result was “inactive”.

Substance VRSYNVKYCSRRNLICGDG yielded an amyloid nucleation score of -0.019 ± 0.41.

For the substance IYTWSIRIYRF, the amyloid nucleation score was -0.778 ± 0.48.

GIYVEEWGHSVPALRWIDKS had an amyloid nucleation score of 0.309 ± 0.8.

The substance HFPHGHDFVFTVCYDTHSCL gave an amyloid nucleation score of 0.729 ± 0.15.

For RIGSGTGRPWN, the amyloid nucleation score was -1.02 ± 0.39.

GSWFPFWLSASMHGSCIYTR displayed an amyloid nucleation score of -0.576 ± 0.44.

VFYVCFKLQIIDGMLNWCKG had an amyloid nucleation score of 7.237 ± 0.032.

On to DWCYYGG, for which the amyloid nucleation score result is “inactive”.

The substance VTGRAFNVTHGDAVEI showed an amyloid nucleation score of 0.299 ± 0.39.

Turning to YTIAECQSCPQNFLFFH, the amyloid nucleation score is 5.96 ± 0.063.
